The values that follow come from PMC9054930 (RSC Advances, 2020).

This experiment deals with alpha fetal protein (AFP) (Homo sapiens, UniProt P02771). The experiment is described as follows: ELISA. Background: In an ELISA, binding on a coated surface is turned into a signal by an enzyme label.
alpha fetal protein (AFP), sequence (P02771 19-609): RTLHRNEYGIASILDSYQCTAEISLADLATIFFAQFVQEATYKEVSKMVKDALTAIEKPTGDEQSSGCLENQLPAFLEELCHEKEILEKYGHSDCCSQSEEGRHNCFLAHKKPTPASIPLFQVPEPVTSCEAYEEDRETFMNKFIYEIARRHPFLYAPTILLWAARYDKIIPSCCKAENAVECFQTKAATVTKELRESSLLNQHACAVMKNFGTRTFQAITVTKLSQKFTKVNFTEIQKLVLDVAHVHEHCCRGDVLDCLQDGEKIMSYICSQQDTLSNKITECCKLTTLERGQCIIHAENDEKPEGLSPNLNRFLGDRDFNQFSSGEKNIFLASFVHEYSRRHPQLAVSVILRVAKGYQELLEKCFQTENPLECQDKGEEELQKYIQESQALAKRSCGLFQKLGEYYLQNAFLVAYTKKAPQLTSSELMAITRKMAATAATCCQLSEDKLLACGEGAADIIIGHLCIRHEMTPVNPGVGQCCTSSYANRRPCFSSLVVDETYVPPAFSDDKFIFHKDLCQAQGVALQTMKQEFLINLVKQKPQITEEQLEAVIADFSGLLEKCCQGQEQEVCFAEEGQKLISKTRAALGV

B1: anti-AFP nanobody A1, phage-displayed (VHH)
VHH: QVQLVESGGGLVQSGGSLRLSCAASMRGFRIVAGGWYRQSPGKQRELVADINYQDDTNYGDFVKGRFTISRDSAKNTLYLQMNSLKPEDTAVYYCSALSVIGNEFWGQGTQVTVSS
Turning to B1, the binding result is recorded as “binds”.

B2: anti-AFP nanobody A2, phage-displayed (VHH)
VHH: QVQLVESGGGLVQAGGSLGLSCAASGLGFSIVAGGWFRQAPGKERELVAAIGTGTGDINYGDSVKGRFTISSDSAKNTVYLQMNSLKPEDTAVYFCATTERYYTGSYDSRARPQSYGYWGQGTQVTVSS
Consider B2, for which the binding result is listed as “binds”.
